Measurements taken from article doi:10.1101/2021.12.16.472979v1.

Substrate: N[C@@H](Cc1ccccc1)C(=O)O
Assay: LC-MS decarboxylation assay, Michaelis-Menten fit
Assay type: biochemical, Enterococcus faecium
Conditions: 100 μM PLP, 200 mM sodium acetate pH 5.5, 100 nM enzyme, 37 °C

B1: Efm_TyrDC (Enterococcus faecium) (protein)
chain: MKDMDIKAVFIGDKAENGPVYKMLLNKMVDEHLGWRENYIPSDMPAISEGDKLTPDYLATRDHMIEVLDEVSQRLRAGSIPWHSAGRYWGQMNAETLMPALLAYNYAMLWNPNNVALESSMATSQMEAEVGQDFASLFNMADGWGHIAADGSIANLEGLWYARCIKSIPLAVKEVLPEKVKNMSEWALLNLSVEEILEMTESFTDEEMDEVKAASSRSGKNIQKLGKWLVPQTKHYSWMKALDICGVGLDQMVAIPVQEDYRMDINALEKTIRELADQKIPILGVVAVVGTTEEGQVDSVDKIIQLREKLKDEGIYFYLHVDAAYGGYARSLFLNEAGEFVPYASLAEFFEEHHVFHHYVTIDKEVYEGFRAISEADSVTIDPHKMGYVPYAAGGIVIKHKNMRNIISYFAPYVFEKSVKAPDMLGAYILEGSKAGATAAAVWTAHRVLPLNVTGYGQLIGASIEAAQRFREFLEQLHFTVKGKTIEVYPLNHPDFNMVNWVFKVQDCTDLNAINELNEKMFDRSSYMDGDVYGERFITSHTTFTQEDYGDSPIRFIERMGLSKEEWQKEQQITLLRAAIMTPYLNDDRIFNFYTKEIAKAMEKKLNEIIK
Protein B1 has a Km of 8.5 mM.
